From the MegaScale stability set (Tsuboyama et al. 2023)

B1: r11_951_TrROS_Hall (parent)
chain: KKKYVIKVYFEDTGKEVEIEAESKEEALEAAKRLAEELGLKIKKVEIYP
B2: EEHEE_rd3_0130 (parent)
chain: TKIIVNGKTFTAPTEEEAQKIAEKLAKKAGLTVHKKNGTFELK

Variants of: B1
Experiment: folding stability dG (cDNA display proteolysis); higher = more stable
Details: PBS, room temperature

Compared with KKKYVIKVYFEDTGKEVEIEAESKEEALEAAKRLAEELGLKIKKVEIYV [P49V], KKKYVIKVYFEDTGKEVEIEAESKEEALEAAKRLAEELGLKIKKVEIYW [P49W] is higher in “folding stability dG” value: 4.45 kcal/mol for the first, 4.59 kcal/mol for the second.

Compared with KKKYVIKVYFEDTGKEVEIEAESKEEALEAAKRLAEELGLKIKKVEIYT [P49T], KKKYVIKVYFEDTGKEVEIEAESKEEALEAAKRLAEELGLKIKKVEIYR [P49R] is lower in “folding stability dG” value: 4.62 kcal/mol for the first, 4.5 kcal/mol for the second.

Compared with KKKYVIKVYFEDTGKEVEIEAESKEEALEAAKRLAEELGLKIKKVEIYQ [P49Q], KKKYVIKVYFEDTGKEVEIEAESKEEALEAAKRLAEELGLKIKKVEIYY [P49Y] is higher in “folding stability dG” value: 4.71 kcal/mol for the first, 4.78 kcal/mol for the second.

With KKKYVIKVYFEDTGKEVEIEAESKEEALEAAKRLAEELGLKIKKVEIYS [P49S] the “folding stability dG” value was 4.62 kcal/mol.

Variants of: B2
Experiment: as above
Details: PBS, room temperature

Compared with TKIIVNGKTFTAPTEEEAQKIAEKLAKKAGVTVHKKNGTFELK [L31V], TKIIVNGKTFTAPTEEELQKIAEKLAKKAGLTVHKKNGTFELK [A18L] is lower in “folding stability dG” value: -0.031 kcal/mol for the first, -0.286 kcal/mol for the second.

Compared with TKIIVNGKTFTAPTEEEAQKIAEKLAMKAGLTVHKKNGTFELK [K27M], TKIIVNGKTFTAPTEEEAQKIAEKLAYKAGLTVHKKNGTFELK [K27Y] is lower in “folding stability dG” value: 0.725 kcal/mol for the first, 0.616 kcal/mol for the second.

Going from TKIIVNGKTFTAPTEEEAQKIAEKLAWKAGLTVHKKNGTFELK [K27W] to TKIIVNGKTFTAPTEEEAQKIAEKIAKKAGLTVHKKNGTFELK [L25I], the “folding stability dG” value rises from 0.749 kcal/mol to 1.13 kcal/mol.

Compared with TKIIVNGKTFTAPTEEEAQKIAEKLAKKAGLTVWKKNGTFELK [H34W], TKIIVNGKTFTAPTEEEAQKIAEKLAKKAGLTVFKKNGTFELK [H34F] is higher in “folding stability dG” value: 0.405 kcal/mol for the first, 0.97 kcal/mol for the second.

Compared with TKIIVNGKTFTAPTEEEAQKIAEVLAKKAGLTVHKKNGTFELK [K24V], TKIIVNGKTFTAPTEEEAQKTAEKLAKKAGLTVHKKNGTFELK [I21T] is lower in “folding stability dG” value: 0.829 kcal/mol for the first, -0.08 kcal/mol for the second.

Going from TKIIVNGKTFTAPTEEEAQKWAEKLAKKAGLTVHKKNGTFELK [I21W] to TKIIVNGKTFTAPTEEEAQKKAEKLAKKAGLTVHKKNGTFELK [I21K], the “folding stability dG” value falls from 1.3 kcal/mol to 0.005 kcal/mol.

Going from TKIIVNGKTFTAPTEEEAQHIAEKLAKKAGLTVHKKNGTFELK [K20H] to TKIIVNGKTLTAPTEEEAQKIAEKLAKKAGLTVHKKNGTFELK [F10L], the “folding stability dG” value falls from 0.597 kcal/mol to 0.392 kcal/mol.

Going from TKIIVNGKTFTAPTEEEAQKIAFKLAKKAGLTVHKKNGTFELK [E23F] to TKIIVNGKTFTAPTEEEAQKIAAKLAKKAGLTVHKKNGTFELK [E23A], the “folding stability dG” value falls from 0.837 kcal/mol to 0.74 kcal/mol.

Going from TKIIVNEKTFTAPTEEEAQKIAEKLAKKAGLTVHKKNGTFELK [G7E] to TKIIVNFKTFTAPTEEEAQKIAEKLAKKAGLTVHKKNGTFELK [G7F], the “folding stability dG” value rises from -0.721 kcal/mol to 0.265 kcal/mol.

First: TKIIVNSKTFTAPTEEEAQKIAEKLAKKAGLTVHKKNGTFELK [G7S]
Second: TKIIVQGKTFTAPTEEEAQKIAEKLAKKAGLTVHKKNGTFELK [N6Q]
The “folding stability dG” value of the first is lower: -0.025 kcal/mol for the first, 0.329 kcal/mol for the second.

First: TKIIVNGKTFTAPTEEHAQKIAEKLAKKAGLTVHKKNGTFELK [E17H]
Second: TKIIVNGKTFTAPTEETAQKIAEKLAKKAGLTVHKKNGTFELK [E17T]
The “folding stability dG” value of the first is higher: 0.567 kcal/mol for the first, 0.526 kcal/mol for the second.

Compared with TKIIVNGKTFTAPTEEEAQKIAEKLAKKAGLTVHKKNGTFCLK [E41C], TKIIVNGKTFTAPTEEEAQKIAEKLAKKAGLTVHKKNNTFELK [G38N] is lower in “folding stability dG” value: 1.19 kcal/mol for the first, 0.509 kcal/mol for the second.

Going from TKIIVNGKTFTAPTEEEAQKIAEKLAKKAGLTVHKKNMTFELK [G38M] to TKIIVNGKTFTAPTEEEAQKIAEKLAKKAGLTVHKMNGTFELK [K36M], the “folding stability dG” value rises from -0.52 kcal/mol to 0.882 kcal/mol.

First: TKIIVNGKTFTAPTEEEAQKIAEKLAKKAGLTVHKKNGTHELK [F40H]
Second: TKIIVNGKAFTAPTEEEAQKIAEKLAKKAGLTVHKKNGTFELK [T9A]
The “folding stability dG” value of the first is lower: 0.087 kcal/mol for the first, 0.394 kcal/mol for the second.

First: TKIIVNGKNFTAPTEEEAQKIAEKLAKKAGLTVHKKNGTFELK [T9N]
Second: TKIIVNGKTFTAPTEEEAQKIAEKLAKKAGLTVHKKNGTFELL [K43L]
The “folding stability dG” value of the first is lower: -0.378 kcal/mol for the first, 1.18 kcal/mol for the second.

First: TKIIVNGKTFTAPTEEEAQKIAEKLAKKAGLTVHKKNGTFELG [K43G]
Second: TKIIVNGKTFTAPTEEEAQKIAEKLAKKAILTVHKKNGTFELK [G30I]
The “folding stability dG” value of the first is higher: 0.476 kcal/mol for the first, -0.078 kcal/mol for the second.

First: TKIIVNGKTFTAPTENEAQKIAEKLAKKAGLTVHKKNGTFELK [E16N]
Second: TKIIVNGKTFTAPTEFEAQKIAEKLAKKAGLTVHKKNGTFELK [E16F]
The “folding stability dG” value of the first is lower: 0.47 kcal/mol for the first, 0.765 kcal/mol for the second.

First: TKIIVNGKTFTAPTEEEAQKIAEKLAKKEGLTVHKKNGTFELK [A29E]
Second: TKIIVNGKTFTAPTKEEAQKIAEKLAKKAGLTVHKKNGTFELK [E15K]
The “folding stability dG” value of the first is higher: 0.607 kcal/mol for the first, 0.359 kcal/mol for the second.

Compared with TKIIVNGKTFRAPTEEEAQKIAEKLAKKAGLTVHKKNGTFELK [T11R], TKIIVNGKTFGAPTEEEAQKIAEKLAKKAGLTVHKKNGTFELK [T11G] is lower in “folding stability dG” value: 0.493 kcal/mol for the first, -0.004 kcal/mol for the second.

Compared with TKIISNGKTFTAPTEEEAQKIAEKLAKKAGLTVHKKNGTFELK [V5S], TKIMVNGKTFTAPTEEEAQKIAEKLAKKAGLTVHKKNGTFELK [I4M] is higher in “folding stability dG” value: -0.322 kcal/mol for the first, 0.561 kcal/mol for the second.

Compared with TKISVNGKTFTAPTEEEAQKIAEKLAKKAGLTVHKKNGTFELK [I4S], TKIEVNGKTFTAPTEEEAQKIAEKLAKKAGLTVHKKNGTFELK [I4E] is lower in “folding stability dG” value: 0.124 kcal/mol for the first, -0.066 kcal/mol for the second.

Compared with TKIIVNGKTFTAPTEEEAQKIAEKLAKKAGLTMHKKNGTFELK [V33M], TKIIVNGKTFTAPTEEEAQKIAEKLAKKAGLTFHKKNGTFELK [V33F] is lower in “folding stability dG” value: 0.559 kcal/mol for the first, 0.358 kcal/mol for the second.

Going from TKIIVNGKTFTAPTEEEAQKIAEKLAKKAGLTAHKKNGTFELK [V33A] to TKIIVNGKTFTAPTEEEAQKIAEKLAKKAGLTVHKKNGLFELK [T39L], the “folding stability dG” value rises from 0.036 kcal/mol to 0.663 kcal/mol.

First: TKIIVNGKTFTAPTEEEAQKIAEKLAKKAGLTVHKKCGTFELK [N37C]
Second: TKIIVNGKTFTAPTEEEAQKIAEKLAKKAGLTVHKKHGTFELK [N37H]
The “folding stability dG” value of the first is higher: 1.05 kcal/mol for the first, -0.068 kcal/mol for the second.

First: EKIIVNGKTFTAPTEEEAQKIAEKLAKKAGLTVHKKNGTFELK [T1E]
Second: TKIIVNGKTFTAPTEEEAQKIAEKLFKKAGLTVHKKNGTFELK [A26F]
The “folding stability dG” value of the first is lower: -0.989 kcal/mol for the first, 0.197 kcal/mol for the second.

In the case of TKIIVNGKTFTAPTEEEAQKIAEKLAKTAGLTVHKKNGTFELK [K28T], the “folding stability dG” value is reported as 0.727 kcal/mol.
